# Target: T1, human trkC (human, UniProt Q16288 32-429, limits assumed)
# T1 construct: also called htrkC; trkC receptor
# Experiment: BIAcore analysis (SPR); format not stated
row,Kd [nM],Binder
1,~40,"mouse anti-trkC agonist monoclonal antibody 2256 (antibody, V domains shown) VH: QVQLQQPGAELVKPGASVKLSCKASGYTFTSYWMHWVKQRPGQGLEWIGEIYPSNGRTNYNEKFKSKATLTVDKSSSTAYMQLSSLTSEDSAVYYCARKYYYGNSYRSWYFDVWGAGTTLTVS VL: not shown"
2,~0.28,"humanized anti-trkC agonist antibody A5 (antibody, V domains shown, also called humanized monoclonal antibody A5) VH: QVQLVQSGAEVKKPGASVKVSCKASGYTFTSYRIHWVRQAPGQGLEWMGEIYPSNARTNYNEKFKSRVTMTRDTSTSTVYMELSSLRSEDTAVYYCARKYYYGNTRRSWYFDVWGQGTTVTVS VL: DIQMTQSPSSLSASVGDRVTITCRASESIDNYGISFLAWYQQKPGKAPKLLIYAASNRGSGVPSRFSGSGSGTDFTFTISSLQPEDIATYYCQQSKTVPRTFGQGTKLEIKR"
